Paper PMC6614801

Experiments:
[1] = target: N-terminally His6-tagged NusA^AR2 (E. coli) (UniProt P0AFF6); test: SPR; Biacore, Sensor Chip NTA, 20°C; N-terminally His6-tagged NusA^AR2 immobilised; single cycle kinetics with SuhB variants at 25, 50, 100, 150 and 200 nM; 20 mM HEPES–NaOH pH 7.5, 50 mM NaCl, 1 mM DTT
[2] = test system: SuhB (Escherichia coli DH5α); test: double filter binding; settings: Hill slope fit, 50 nM RNA, Filter binding: 20 mM HEPES-NaOH pH 7.5, 50 mM NaCl, 1 mM DTT, room temperature, 20 min, SEC buffer not in material

Row | Substance | Kd [1] [µM] | Kd [2] [µM]
1 | SuhB^KL251/254AA (from UniProt P0ADG4 1-267) (natural protein) | 141 | 
2 | rrnGnut RNA |  | 3.2
